Values of other authors, collected in PMC10582360, “A nanoparticle platform for combined mucosal healing and immunomodulation in inflammatory bowel disease treatment” (Bioactive materials, 2023).

System: dipeptidyl peptidase IV (DPP-IV)
Details: ref [4]
From the text: Teduglutide, a GLP-2 analog with prolonged half-life, is commercialized as a daily subcutaneous injection (Gattex®, Revestive®) for its use in short bowel syndrome (SBS) in patients who are dependent on parenteral support. A second long-acting GLP-2 analog, glepaglutide (Zealand Pharma), has just ...

For Glucagon-like peptide 2 [GLP-2], the “cleavage by DPP-IV” value is given as “rapidly cleaved”.
